From article PMC4456660 come the findings set out here.

Broadly, the Kd is the equilibrium constant for the complex coming apart. A high value points to lower affinity.

Test [1] has as its target Ube2S, biotinylated on an N-terminal Avi tag (human) (UniProt Q16763). As to the kind of experiment: SPR. (Surface plasmon resonance follows binding to a sensor surface in real time, without labels.)
In test [2] the target is UbcH10~Ub conjugate (UbcH10(C114K)-Avi conjugated with His6-tagged ubiquitin), biotinylated (human) (UniProt O00762). Put plainly: SPR.
UbcH10~Ub conjugate (UbcH10(C114K)-Avi conjugated with His6-tagged ubiquitin), biotinylated (human), sequence (O00762 whole entry C114K): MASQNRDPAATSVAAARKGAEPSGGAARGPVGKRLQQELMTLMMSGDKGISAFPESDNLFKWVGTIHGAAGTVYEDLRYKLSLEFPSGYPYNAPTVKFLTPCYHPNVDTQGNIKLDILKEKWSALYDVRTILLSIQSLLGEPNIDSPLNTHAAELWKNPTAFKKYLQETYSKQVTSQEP

Ube2S, biotinylated on an N-terminal Avi tag (human), sequence (Q16763 whole entry): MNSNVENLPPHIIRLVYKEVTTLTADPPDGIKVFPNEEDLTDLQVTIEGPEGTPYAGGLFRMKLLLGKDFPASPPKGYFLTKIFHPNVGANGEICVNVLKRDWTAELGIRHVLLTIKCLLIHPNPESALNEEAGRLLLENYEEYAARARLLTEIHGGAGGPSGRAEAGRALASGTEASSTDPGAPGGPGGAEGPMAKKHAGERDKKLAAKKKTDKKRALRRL

As to “apo APC/C (from UniProt Q9H1A4;Q9UJX6;P30260;Q9UJX5;Q9UJX4;Q13042;Q9UJX3;Q9UJX2;Q9UM13;Q9NYG5;Q8NHZ8;Q9BS18;P60006;Q96DE5) (complex)”, the Kd in test [1] stood at 300 nM.
Take “APC/C^Cdh1.Hsl1 ternary complex (from UniProt Q9H1A4;Q9UJX6;P30260;Q9UJX5;Q9UJX4;Q13042;Q9UJX3;Q9UJX2;Q9UM13;Q9NYG5;Q8NHZ8;Q9BS18;P60006;Q96DE5;Q9UM11;P34244)”: the fold higher affinity than apo APC/C in test [2] was determined as 7 fold. The same substance returned a Kd in test [1] of 200 nM.
